The target of test [1] is T1, His-tagged ILT4 protein extracellular domain: ILT4-His (human, UniProt Q8N423 22-460).
T1 construct: Expressed in 293 cells; also called human ILT4-His protein
Put plainly: SPR (Biacore), antibody captured on Protein A chip, ILT4-His as analyte, 1:1 model. (In general: In SPR one partner is held on a chip, and binding of the other changes the refractive index at the surface.)

For test [2], the target named is T2, LILRA3-His (Acro, LI3-H82E0) (human, UniProt Q8N6C8 24-439).
T2 construct: Bought protein. 'Human' stands at the head of the list of coated proteins; not shown: His tag
The test can be described thus: ELISA, coated protein 1 µg/mL. On the technique in general: ELISA stands for enzyme-linked immunosorbent assay.

Test [3] addresses T3, LILRA6-His (Acro, LI6-H82E2) (human, UniProt Q6PI73 24-447).
T3 construct: Bought protein. 'Human' stands at the head of the list of coated proteins; not shown: His tag
Put plainly: ELISA, coated protein 1 µg/mL.

Test [4] addresses T4, LILRB5-His (Acro, CDC-H5220) (human, UniProt O75023 24-458, limits assumed).
T4 construct: Bought protein. 'Human' stands at the head of the list of coated proteins; not shown: His tag
Put plainly: ELISA, coated protein 1 µg/mL.

Test [5] addresses T5, LILRA2-His (Acro, LI2-H82E9) (human, UniProt Q8N149 24-449).
T5 construct: Bought protein. 'Human' stands at the head of the list of coated proteins; not shown: His tag
Put plainly: ELISA, coated protein 1 µg/mL.

Test [6] addresses T6, LILRA1-His (Acro, LI1-H82E8) (human, UniProt O75019 17-461).
T6 construct: Bought protein. 'Human' stands at the head of the list of coated proteins; not shown: His tag
The test can be described thus: ELISA, coated protein 1 µg/mL.

Test [7] has as its target T7, LILRA5-His (Acro, LI5-H82E1) (human, UniProt A6NI73 42-268).
T7 construct: Bought protein. 'Human' stands at the head of the list of coated proteins; not shown: His tag
The test can be described thus: ELISA, coated protein 1 µg/mL.

The target of test [8] is T8, His-tagged ILT3 protein extracellular domain: ILT3-His (human, UniProt Q8NHJ6 22-259).
T8 construct: The entry is the whole construct, with the His tag
The test can be described thus: ELISA, coated protein 1 µg/mL.

The target in test [9] is T9, His-tagged ILT2 protein extracellular domain: ILT2-His (human, UniProt Q8NHL6 24-461).
T9 construct: The entry is the whole construct, with the His tag; also called human ILT2 protein
Put plainly: ELISA, coated protein 1 µg/mL.

The target in test [10] is T10, LILRA4-His (SinoBiological, 16058-H08H) (human, UniProt P59901 24-446).
T10 construct: Bought protein. 'Human' stands at the head of the list of coated proteins; not shown: His tag
The test can be described thus: ELISA, coated protein 1 µg/mL.

Test [11] has as its target T1, His-tagged ILT4 protein extracellular …. Put plainly: ELISA, coated protein 1 µg/mL, antibody 10 µg/mL.
The target in test [12] is T2, LILRA3-His (Acro, LI3-H82E0). The test can be described thus: ELISA, coated protein 1 µg/mL, antibody 10 µg/mL.
Test [13] concerns the target T3, LILRA6-His (Acro, LI6-H82E2). The test can be described thus: ELISA, coated protein 1 µg/mL, antibody 10 µg/mL.
Test [14] concerns the target T4, LILRB5-His (Acro, CDC-H5220). Put plainly: ELISA, coated protein 1 µg/mL, antibody 10 µg/mL.
The target in test [15] is T5, LILRA2-His (Acro, LI2-H82E9). Put plainly: ELISA, coated protein 1 µg/mL, antibody 10 µg/mL.
Test [16] concerns the target T6, LILRA1-His (Acro, LI1-H82E8). Put plainly: ELISA, coated protein 1 µg/mL, antibody 10 µg/mL.
Test [17] deals with T7, LILRA5-His (Acro, LI5-H82E1). Put plainly: ELISA, coated protein 1 µg/mL, antibody 10 µg/mL.
The target in test [18] is T8, His-tagged ILT3 protein extracellular …. Put plainly: ELISA, coated protein 1 µg/mL, antibody 10 µg/mL.
Test [19] deals with T9, His-tagged ILT2 protein extracellular …. Put plainly: ELISA, coated protein 1 µg/mL, antibody 10 µg/mL.
Test [20] deals with T10, LILRA4-His (SinoBiological, 16058-H08H). The test can be described thus: ELISA, coated protein 1 µg/mL, antibody 10 µg/mL.
Test [21] concerns the target T11, full-length human ILT4 protein overexpressed on cells (human, UniProt Q8N423 22-597).
T11 construct: also called CHO-S/ILT4; ILT4 stably transfected cell strain
Put plainly: flow cytometry competition on CHO-S/ILT4 cells; competitor CF647-labelled HLA-G tetramer; Assay 2.

Test [22] concerns the target T11, full-length human ILT4 protein …. Put plainly: flow cytometry competition on CHO-S/ILT4 cells; competitor CF647-labelled HLA-G tetramer; Assay 4. (In general: Flow cytometry measures light scatter and fluorescence of single cells or particles in a stream.)
Test [23] has the same target. Put plainly: flow cytometry competition on CHO-S/ILT4 cells; competitor CF647-labelled HLA-G tetramer; Assay 3.

T11 sequence (Q8N423 other isoform, or with tags, fused parts or gaps limits assumed): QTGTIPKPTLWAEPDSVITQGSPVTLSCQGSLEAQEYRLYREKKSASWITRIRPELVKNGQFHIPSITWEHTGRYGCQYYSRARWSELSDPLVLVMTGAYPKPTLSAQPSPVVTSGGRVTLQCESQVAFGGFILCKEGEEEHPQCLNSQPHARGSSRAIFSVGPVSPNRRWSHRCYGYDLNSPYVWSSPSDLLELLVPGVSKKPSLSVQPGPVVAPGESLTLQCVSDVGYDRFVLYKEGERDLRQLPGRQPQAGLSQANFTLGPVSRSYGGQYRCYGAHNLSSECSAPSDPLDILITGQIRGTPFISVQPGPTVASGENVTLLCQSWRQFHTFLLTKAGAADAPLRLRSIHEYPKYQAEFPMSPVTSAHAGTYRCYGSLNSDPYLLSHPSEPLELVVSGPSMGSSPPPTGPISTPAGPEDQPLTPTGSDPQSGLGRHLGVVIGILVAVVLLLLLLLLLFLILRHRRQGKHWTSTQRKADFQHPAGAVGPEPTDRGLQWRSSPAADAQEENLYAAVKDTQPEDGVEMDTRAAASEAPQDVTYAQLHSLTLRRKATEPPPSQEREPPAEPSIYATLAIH
T10 sequence (P59901 24-446 limits assumed): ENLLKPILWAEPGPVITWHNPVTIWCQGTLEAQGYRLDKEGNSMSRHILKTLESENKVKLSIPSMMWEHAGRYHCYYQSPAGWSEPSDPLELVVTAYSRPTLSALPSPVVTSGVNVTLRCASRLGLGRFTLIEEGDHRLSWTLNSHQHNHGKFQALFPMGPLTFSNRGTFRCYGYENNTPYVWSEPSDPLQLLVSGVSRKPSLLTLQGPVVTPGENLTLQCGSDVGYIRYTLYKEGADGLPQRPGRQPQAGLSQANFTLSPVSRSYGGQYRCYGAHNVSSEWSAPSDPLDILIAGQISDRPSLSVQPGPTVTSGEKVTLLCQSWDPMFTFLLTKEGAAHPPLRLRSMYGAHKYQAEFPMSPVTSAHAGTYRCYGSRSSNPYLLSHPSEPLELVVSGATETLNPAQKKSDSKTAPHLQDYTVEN
T7 sequence (A6NI73 42-268 limits assumed): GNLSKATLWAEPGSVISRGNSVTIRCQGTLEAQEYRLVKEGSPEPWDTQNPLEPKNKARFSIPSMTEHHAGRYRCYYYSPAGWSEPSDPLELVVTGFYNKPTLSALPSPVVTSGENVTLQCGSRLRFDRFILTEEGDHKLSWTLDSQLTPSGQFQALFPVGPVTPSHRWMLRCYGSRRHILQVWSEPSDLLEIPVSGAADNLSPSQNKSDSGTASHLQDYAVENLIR
T3 sequence (Q6PI73 24-447 limits assumed): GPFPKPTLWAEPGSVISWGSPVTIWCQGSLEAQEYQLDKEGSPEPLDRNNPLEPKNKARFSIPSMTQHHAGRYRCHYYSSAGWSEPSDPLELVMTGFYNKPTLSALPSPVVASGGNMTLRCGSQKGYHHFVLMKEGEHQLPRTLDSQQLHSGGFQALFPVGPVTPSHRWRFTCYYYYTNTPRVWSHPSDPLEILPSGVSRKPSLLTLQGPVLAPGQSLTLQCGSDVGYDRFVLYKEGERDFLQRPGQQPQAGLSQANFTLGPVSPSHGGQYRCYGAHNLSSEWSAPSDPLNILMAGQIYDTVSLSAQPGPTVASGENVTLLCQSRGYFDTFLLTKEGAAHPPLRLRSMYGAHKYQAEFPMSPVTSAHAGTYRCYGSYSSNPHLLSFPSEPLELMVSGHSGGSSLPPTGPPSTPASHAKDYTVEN
T1 sequence (Q8N423 other isoform, or with tags, fused parts or gaps limits assumed): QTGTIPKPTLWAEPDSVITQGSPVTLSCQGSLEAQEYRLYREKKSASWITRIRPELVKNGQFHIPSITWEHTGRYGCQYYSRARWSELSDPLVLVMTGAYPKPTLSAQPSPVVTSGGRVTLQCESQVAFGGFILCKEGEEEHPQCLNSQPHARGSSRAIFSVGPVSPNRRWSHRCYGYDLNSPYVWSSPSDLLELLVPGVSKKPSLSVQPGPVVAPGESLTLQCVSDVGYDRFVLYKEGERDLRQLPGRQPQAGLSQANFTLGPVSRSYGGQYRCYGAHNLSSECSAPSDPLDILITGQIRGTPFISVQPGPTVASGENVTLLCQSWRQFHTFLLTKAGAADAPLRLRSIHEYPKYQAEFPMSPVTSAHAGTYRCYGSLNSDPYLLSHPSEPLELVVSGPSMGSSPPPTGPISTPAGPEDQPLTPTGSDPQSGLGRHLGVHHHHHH
T4 sequence (O75023 24-458 limits assumed): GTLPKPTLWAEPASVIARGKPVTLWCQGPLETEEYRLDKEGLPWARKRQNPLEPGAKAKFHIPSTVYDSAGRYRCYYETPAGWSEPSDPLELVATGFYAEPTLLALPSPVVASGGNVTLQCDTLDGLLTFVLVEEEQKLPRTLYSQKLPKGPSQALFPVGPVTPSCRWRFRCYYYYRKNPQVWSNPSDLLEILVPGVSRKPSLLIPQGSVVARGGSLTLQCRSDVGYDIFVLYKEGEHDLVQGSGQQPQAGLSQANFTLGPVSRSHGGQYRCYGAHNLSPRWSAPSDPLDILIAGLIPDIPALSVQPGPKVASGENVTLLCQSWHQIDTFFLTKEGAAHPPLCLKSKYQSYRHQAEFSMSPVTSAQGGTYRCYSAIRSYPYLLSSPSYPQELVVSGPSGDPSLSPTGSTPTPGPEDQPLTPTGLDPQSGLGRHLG
T2 sequence (Q8N6C8 24-439 limits assumed): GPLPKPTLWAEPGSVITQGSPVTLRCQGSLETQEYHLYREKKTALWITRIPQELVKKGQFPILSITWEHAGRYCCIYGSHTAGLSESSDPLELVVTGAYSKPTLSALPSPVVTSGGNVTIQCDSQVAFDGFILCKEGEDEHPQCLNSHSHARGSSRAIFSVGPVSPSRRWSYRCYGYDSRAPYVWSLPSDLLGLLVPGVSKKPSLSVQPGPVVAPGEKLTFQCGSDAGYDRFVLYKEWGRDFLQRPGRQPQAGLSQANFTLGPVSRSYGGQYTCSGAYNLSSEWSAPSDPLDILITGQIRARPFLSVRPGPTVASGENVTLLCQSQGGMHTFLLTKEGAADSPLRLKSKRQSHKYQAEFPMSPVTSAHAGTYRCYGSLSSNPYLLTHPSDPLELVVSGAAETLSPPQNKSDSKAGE
T6 sequence (O75019 17-461 limits assumed): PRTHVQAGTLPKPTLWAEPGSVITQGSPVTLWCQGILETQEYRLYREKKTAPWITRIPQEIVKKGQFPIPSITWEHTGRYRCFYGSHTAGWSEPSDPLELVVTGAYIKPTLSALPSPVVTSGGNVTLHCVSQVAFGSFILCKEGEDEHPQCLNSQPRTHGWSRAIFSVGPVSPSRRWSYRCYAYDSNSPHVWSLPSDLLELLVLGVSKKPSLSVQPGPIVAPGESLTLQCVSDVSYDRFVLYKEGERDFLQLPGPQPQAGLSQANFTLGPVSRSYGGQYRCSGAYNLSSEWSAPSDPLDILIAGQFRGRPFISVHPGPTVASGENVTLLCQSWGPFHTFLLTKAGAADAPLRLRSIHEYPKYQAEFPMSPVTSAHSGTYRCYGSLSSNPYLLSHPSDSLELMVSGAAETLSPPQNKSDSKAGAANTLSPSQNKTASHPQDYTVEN
T9 sequence (Q8NHL6 other isoform, or with tags, fused parts or gaps): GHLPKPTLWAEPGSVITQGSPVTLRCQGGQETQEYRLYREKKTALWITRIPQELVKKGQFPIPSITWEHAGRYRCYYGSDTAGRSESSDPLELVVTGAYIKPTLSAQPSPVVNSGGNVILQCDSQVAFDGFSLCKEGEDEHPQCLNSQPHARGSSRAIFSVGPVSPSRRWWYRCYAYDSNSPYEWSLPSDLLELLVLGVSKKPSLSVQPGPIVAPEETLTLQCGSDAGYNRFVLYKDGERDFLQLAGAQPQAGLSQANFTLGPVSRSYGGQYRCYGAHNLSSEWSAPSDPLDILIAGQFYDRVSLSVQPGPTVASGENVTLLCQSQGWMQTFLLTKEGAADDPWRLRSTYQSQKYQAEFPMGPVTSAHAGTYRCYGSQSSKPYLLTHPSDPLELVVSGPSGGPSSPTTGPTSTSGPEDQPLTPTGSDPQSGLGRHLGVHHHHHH
T5 sequence (Q8N149 24-449 limits assumed): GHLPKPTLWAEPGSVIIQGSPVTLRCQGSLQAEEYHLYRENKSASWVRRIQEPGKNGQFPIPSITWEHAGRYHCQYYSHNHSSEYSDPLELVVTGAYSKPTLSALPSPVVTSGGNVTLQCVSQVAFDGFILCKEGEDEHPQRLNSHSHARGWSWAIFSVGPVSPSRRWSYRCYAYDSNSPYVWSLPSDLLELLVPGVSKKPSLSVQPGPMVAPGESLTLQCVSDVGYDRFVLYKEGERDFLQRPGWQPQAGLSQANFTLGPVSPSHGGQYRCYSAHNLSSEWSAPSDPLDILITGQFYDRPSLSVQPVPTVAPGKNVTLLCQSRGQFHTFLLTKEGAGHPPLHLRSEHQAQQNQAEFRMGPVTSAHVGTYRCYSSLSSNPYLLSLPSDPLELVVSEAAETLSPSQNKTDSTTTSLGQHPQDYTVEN

B1: humanized antibody huP2-E8 (antibody, human IgG4 S228P, kappa, F234A L235A, V domains shown)
VH: EVQLVESGGGLVKPGGSLRLSCAASGFTFSDYGIHWVRQAPGKGLEWVAYISSGSSIHNYADTVKGRFTISRDNAKNSLYLQMNSLRAEDTAVYYCARGPNYYGSSYLLVYWGQGTLVTVSS
VL: DIQMTQSPSSLSASVGDRVTITCKASQDVNIAVAWYQQKPGKAPKLLIYSASYRYTGVPSRFSGSGSGTDFTFTISSLQPEDIATYYCQQHYNIPWTFGGGTKVEIKR
notes: Full chains; also called P2-E8H4L1
What is called Kd is the constant that tells how readily two partners part at equilibrium. Higher therefore signals weaker binding. Broadly, the koff is a measure of how fast the partners let go of each other. Lower therefore signals a long-lived complex. For orientation: kon means the rate constant with which the complex forms. Higher therefore signals fast association. In test [1], B1 returned a Kd of 0.839 nM. Also, in [1], the koff came out at 0.000186 s⁻¹. This molecule also came in with a kon in test [1] of 222000 M⁻¹ s⁻¹. In addition, the binding result in test [2], in test [3], in test [4], in test [5], in test [6] and in test [7] was “no binding (tested: 10 µg/mL)” in each case. Further, the binding result in test [8], in test [9] and in [10] was “no binding (tested: 10 µg/mL)” each time. The “absorbance at 450 nm” value in [11] turned out to be 0.954 absorbance at 450 nm; in [12], 0.0467 absorbance at 450 nm; in [13], 0.0461 absorbance at 450 nm; in test [14], 0.0489 absorbance at 450 nm; in [15] it was 0.0516 absorbance at 450 nm; in test [16], 0.0483 absorbance at 450 nm. Moreover, the “absorbance at 450 nm” value in test [17] worked out at 0.0467 absorbance at 450 nm; in [18], 0.063 absorbance at 450 nm; in test [19] it was 0.0569 absorbance at 450 nm; in [20], 0.0504 absorbance at 450 nm.

B2: humanized antibody huP2-G9 (antibody, human IgG1, kappa, L234A L235A, V domains shown)
VH: EVQLQESGPGLVKPSQTLSLTCTVSGSSITSGYYWNWIRQHPGKGLEWIGYLSYDGSNNYNPSLKNLVTISRDTSKNQFSLKLSSVTAADTAVYYCAREGAHYSGTLSWFAYWGQGTLVTVSS
VL: DIQMTQSPSSLSASVGDRVTITCRASENIYSNLAWYQQKPGKSPKLLVYAATNLADGVPSRFSGSGSGTDYTLTISSLQPEDFATYYCQHFWDTPYTFGGGTKVEIKR
notes: Full chains; also called P2-G9H1L2
Usually IC50 stands for the concentration needed to halve the response being measured. The low end stands for greater potency in that assay, the high end for weaker potency in that assay. For the molecule B2, the Kd in test [1] came out at 0.109 nM. In test [1], this molecule gave a koff of 0.000109 s⁻¹. This molecule gave a kon in [1] of 999000 M⁻¹ s⁻¹. Moreover, the concentration for half-maximal inhibition (IC50) in [21] worked out at 0.085 µg/mL. Moreover, the binding result in test [2], in test [3], in test [4], in test [5], in test [6] and in [7] was “no binding (tested: 10 µg/mL)” throughout. In addition, the binding result in test [8], in test [9] and in [10] was “no binding (tested: 10 µg/mL)” each time. Moreover, the “absorbance at 450 nm” value was 1.77 absorbance at 450 nm in test [11]; 0.0461 absorbance at 450 nm in [12]; 0.0449 absorbance at 450 nm in [13]; 0.0533 absorbance at 450 nm in test [14]; 0.0759 absorbance at 450 nm in test [15]; 0.0457 absorbance at 450 nm in [16]. Besides, the “absorbance at 450 nm” value in test [17] was 0.0441 absorbance at 450 nm; in test [18] it was 0.0564 absorbance at 450 nm; in test [19], 0.0541 absorbance at 450 nm; in test [20], 0.0674 absorbance at 450 nm.

B3: fully human-derived antibody P2m (antibody, human IgG1, kappa, L234A L235A, V domains shown)
VH: QVQLVQSGAEVKKPGSSVKVSCKASGYTFTSYDISWVRQAPGQGLEWMGGIIPIFGTANYAQKFQGRVTITADESTSTAYMELSSLRSEDTAVYYCTAGIFLATAYWGQGTLVTVSS
VL: DIQMTQSPSSMSASVGDRVTISCQASQDIQNYLNWYQQRPGQAPKLLIYDASTLETGVPSRFSGSGSGTYFTLTISSLQPEDVATYYCQQYENVPITFGQGTRLEIKR
notes: Full chains
Turning to B3, binding in test [1] was put at a Kd of 0.0433 nM. The same molecule had a koff in test [1] of 8.78e-05 s⁻¹. The molecule further registered a kon in [1] of 2.03e+06 M⁻¹ s⁻¹. The binding result in test [2], in test [3], in [4], in [5], in [6] and in test [7] was “no binding (tested: 10 µg/mL)” each time. Moreover, the binding result in [8], in test [9] and in [10] was “no binding (tested: 10 µg/mL)” each time. The molecule also returned an IC50 in [22] of 0.033 µg/mL. The “absorbance at 450 nm” value in test [11] was 1.87 absorbance at 450 nm; in [12], 0.0468 absorbance at 450 nm; in test [13], 0.0453 absorbance at 450 nm; in test [14], 0.0663 absorbance at 450 nm; in test [15], 0.0448 absorbance at 450 nm; in test [16], 0.0469 absorbance at 450 nm. Further, the “absorbance at 450 nm” value was found to be 0.0459 absorbance at 450 nm in test [17], 0.0671 absorbance at 450 nm in [18], 0.0517 absorbance at 450 nm in [19] and 0.0543 absorbance at 450 nm in test [20].

B4: humanized antibody huP2-C6 (antibody, human IgG1, kappa, L234A L235A, V domains shown)
VH: EVQLVQSGAEVKKPGASVKVSCKASGYTFTDYYIHWVRQAPGQGLEWMGYIYPDTGYSGYNQKFKGRVTMTVDKSTSTAYMELRSLRSDDTAVYYCTRRGDYSGVHFDYWGQGTTVTVSS
VL: DIVLTQSPDSLAVSLGERATINCRASESVNNYGVGFLHWYQQKPGQPPKLLIYRASTLESGIPDRFSGSGSGTDFTLTISSLQAEDVAVYYCQHSYKDPPWTFGGGTKVEIKR
notes: Full chains; also called P2-C6H7L1
Take B4: in test [1], the dissociation constant (Kd) is 0.0543 nM. The molecule also yielded a dissociation rate constant (koff) in test [1] of 6.58e-05 s⁻¹. For the same molecule, the kon in [1] came out at 1.21e+06 M⁻¹ s⁻¹. This molecule also had an IC50 in test [23] of 0.072 µg/mL. Moreover, the binding result in test [2], in test [3], in [4], in test [5], in test [6] and in test [7] was “no binding (tested: 10 µg/mL)” throughout. The binding result in [8], in test [9] and in test [10] was “no binding (tested: 10 µg/mL)” throughout. The “absorbance at 450 nm” value stood at 2.69 absorbance at 450 nm in test [11]; 0.0613 absorbance at 450 nm in [12]; 0.0606 absorbance at 450 nm in [13]; 0.0563 absorbance at 450 nm in test [14]; 0.0565 absorbance at 450 nm in test [15]; 0.0535 absorbance at 450 nm in [16]. The “absorbance at 450 nm” value amounted to 0.0598 absorbance at 450 nm in test [17], 0.149 absorbance at 450 nm in test [18], 0.0621 absorbance at 450 nm in [19] and 0.0605 absorbance at 450 nm in [20].

(Values after patent EP4585618A1 (Jiangsu Hengrui Pharmaceuticals Co., Ltd., dated 2025).)
